The target of assay [1] is 6G11 (BI‐1206), full‐length antibody containing the PGLALA Fc mutations (human). Kind of assay: ELISA; 6G11 coated (5 µg/mL, MaxiSorp, overnight 4°C); scFv 500 to 0.19 nM, 1 h RT; detection with StrepTactin-HRP. (In general: An ELISA detects its analyte on a solid surface through an enzyme-linked reagent.)
Assay [2] shares this target. Kind of assay: BLI; 6G11 (5 µg/mL) loaded on Protein A tips; original or mutated S2B scFv 500-7.8 nM in 1:2 dilutions; association and dissociation 180 s each. (In BLI a coated tip is dipped into the sample, and binding shifts an interference pattern.)

These results are taken from paper PMC11629141.

Substitutions are numbered along the chain they refer to. In names and notes the source's numbering stands.

6G11 (BI‐1206), full‐length antibody containing the PGLALA Fc mutations (human), sequence (heavy, as listed by the source, chain 1 of 2): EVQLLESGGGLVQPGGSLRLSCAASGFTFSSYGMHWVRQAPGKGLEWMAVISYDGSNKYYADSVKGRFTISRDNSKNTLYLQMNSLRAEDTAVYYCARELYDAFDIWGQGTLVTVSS
6G11 (BI‐1206), full‐length antibody containing the PGLALA Fc mutations (human), sequence (light, as listed by the source, chain 2 of 2): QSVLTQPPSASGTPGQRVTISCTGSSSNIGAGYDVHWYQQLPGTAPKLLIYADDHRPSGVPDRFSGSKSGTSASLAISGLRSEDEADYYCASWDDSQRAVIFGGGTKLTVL

B1: S2N scFv (non‐blocking anti‐6G11 scFv clone 2), solitary (scFv, V domains shown)
VH: AVTLDESGGGLQTPGGGLSLVCKASGFSFSDRGMQWVRQAPGKGLEWVAGIDDDDNNTWYATAVKGRATISRDNGQSTVRLQLNSLRAEDTGTYYCAKTPTSYYWGAAEIDAWGHGTEVIV
VL: ALTQPSSVSANPGETVKITCSGSSGSYGWYQQKAPGSAPVTVIYDNNNRPSNIPSRFSGSLSGSTNTLTITGVQADDEAVYFCGSYEGSSYVGIFGAGTTLTVL
By EC50 is commonly meant the concentration that produces a half-maximal response. A lower EC50 goes with higher potency in that assay. B1 returned an EC50 in assay [1] of 3.9 nM.

B2: S2B R101A scFv, solitary (scFv, V domains shown)
VH: AVTLDESGGGLQTPGGGLSLVCKASGFTFSSYSMVWVRQAPSKRLEWVAGIYSSATWTYYAPAVKGRATISRDNGQSTVRLQLNDLRAEDTGTYFCAKTSASGWTAYSASAIDAWGHGTEVIV
VL: ALTQPSSVSANPGETVKITCSGGSSYYGWYQQKSPGSAPVTVIYSNDKRPSDIPSRFSGSTSGSTATLTITGVQADDEAVYFCGGYDSNIHGGIFGAGTTLTVL
Regarding B2, the fold decrease in affinity against the original S2B in assay [2] turned out to be 6 fold.

B3: S2B scFv (blocking anti‐6G11 scFv clone 2), solitary (scFv, V domains shown)
VH: B2 VH with A101R
VL: B2 VL
In the case of B3, the concentration for a half-maximal effect (EC50) in assay [1] came out at 28.7 nM. This lies in the double-digit nanomolar range.

B4: S2B Y52A scFv, solitary (scFv, V domains shown)
VH: B2 VH with Y52A, A101R
VL: B2 VL
B4: the fold decrease in binding against the original S2B in assay [2] came out at 4 fold.

B5: S2B W104A scFv, solitary (scFv, V domains shown)
VH: B2 VH with A101R, W104A
VL: B2 VL
In assay [2], B5 registered a fold decrease in affinity against the original S2B of 10 fold.
